The record followed here is PMC12713088, “Arabidopsis TRB Proteins Form Two Closely Related Complexes to Mediate H3K4me3 Demethylation and Transcriptional Repression” (Advanced Science, 2025).

For data set [1], the target named is T1, TRB1;HTH1 (Arabidopsis thaliana;Arabidopsis …, UniProt Q8VWK4;Q9SHL4 1-300;1-275, |).
T1 sequence 1: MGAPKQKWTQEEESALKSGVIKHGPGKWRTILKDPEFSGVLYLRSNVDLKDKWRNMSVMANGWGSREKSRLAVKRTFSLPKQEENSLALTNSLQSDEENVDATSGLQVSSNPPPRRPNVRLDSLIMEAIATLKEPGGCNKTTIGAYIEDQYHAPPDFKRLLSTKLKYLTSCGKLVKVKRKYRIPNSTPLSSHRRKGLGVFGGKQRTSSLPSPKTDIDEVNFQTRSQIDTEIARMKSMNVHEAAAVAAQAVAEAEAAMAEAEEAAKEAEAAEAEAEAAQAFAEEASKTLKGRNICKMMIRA
T1 sequence 2: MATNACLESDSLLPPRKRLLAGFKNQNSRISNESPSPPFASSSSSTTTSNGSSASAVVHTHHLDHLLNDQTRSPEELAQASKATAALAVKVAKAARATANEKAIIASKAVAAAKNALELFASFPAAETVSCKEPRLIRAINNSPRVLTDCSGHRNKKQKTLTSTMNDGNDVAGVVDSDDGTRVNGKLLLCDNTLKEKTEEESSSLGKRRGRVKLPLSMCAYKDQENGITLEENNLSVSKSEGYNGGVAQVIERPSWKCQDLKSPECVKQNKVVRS
Briefly: EMSA; larger complex, enhanced vs TRB1 alone; EMSA: 10 mM Tris-HCl pH 7.5, 50 mM NaCl, 1 mM EDTA, 5% glycerol, 1 mM DTT, 25 C, 30 min, 20 ng DNA + 1 ug protein; ITC: 20 mM Tris-HCl pH 7.5, 150 mM NaCl, 25 C, 5 uM protein, 100 uM DNA. Conditions: protein: recombinant;recombinant; tags: His;His or MBP (EMSA construct not specified); label: Cy5 at 5' of strand 1; blunt.

For data set [2], the target named is T2, TRB1;NAC050-N (Arabidopsis thaliana;Arabidopsis …, UniProt Q8VWK4;Q9SQX9 1-300;1-184, |).
T2 sequence 1: T1 sequence 1
T2 sequence 2: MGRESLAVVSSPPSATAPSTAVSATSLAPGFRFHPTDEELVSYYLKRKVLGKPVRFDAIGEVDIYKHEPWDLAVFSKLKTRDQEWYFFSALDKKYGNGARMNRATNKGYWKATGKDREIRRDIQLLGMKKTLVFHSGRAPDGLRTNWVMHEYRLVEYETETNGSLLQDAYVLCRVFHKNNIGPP
The description is as above. To be noted: protein: recombinant;recombinant; tags: His;MBP; label: Cy5 at 5' of strand 1; blunt.

Data set [3] deals with T3, TRB1 (Arabidopsis thaliana, UniProt Q8VWK4 1-300).
T3 sequence: T1 sequence 1
Briefly: EMSA; EMSA: 10 mM Tris-HCl pH 7.5, 50 mM NaCl, 1 mM EDTA, 5% glycerol, 1 mM DTT, 25 C, 30 min, 20 ng DNA + 1 ug protein; ITC: 20 mM Tris-HCl pH 7.5, 150 mM NaCl, 25 C, 5 uM protein, 100 uM DNA. Conditions: protein: recombinant; tags: His; label: Cy5 at 5' of strand 1; blunt. For orientation: In EMSA bound probe runs differently from free probe, usually more slowly.

Data set [4] has as its target T4, TRB3 (Arabidopsis thaliana, UniProt Q9M2X3 1-295).
T4 sequence: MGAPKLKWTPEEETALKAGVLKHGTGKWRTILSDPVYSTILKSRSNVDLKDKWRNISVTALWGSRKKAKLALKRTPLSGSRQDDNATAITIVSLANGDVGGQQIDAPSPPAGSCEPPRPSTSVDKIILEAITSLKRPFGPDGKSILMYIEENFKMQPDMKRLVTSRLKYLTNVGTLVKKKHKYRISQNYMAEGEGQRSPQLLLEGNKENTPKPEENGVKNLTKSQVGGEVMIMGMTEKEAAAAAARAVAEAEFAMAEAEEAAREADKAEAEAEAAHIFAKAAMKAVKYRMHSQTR
The description is as above. Conditions: protein: recombinant; tags: His; label: Cy5 at 5' of strand 1; blunt.

For data set [5], the target named is T5, TRB2 (Arabidopsis thaliana, UniProt Q9FJW5 1-299).
T5 sequence: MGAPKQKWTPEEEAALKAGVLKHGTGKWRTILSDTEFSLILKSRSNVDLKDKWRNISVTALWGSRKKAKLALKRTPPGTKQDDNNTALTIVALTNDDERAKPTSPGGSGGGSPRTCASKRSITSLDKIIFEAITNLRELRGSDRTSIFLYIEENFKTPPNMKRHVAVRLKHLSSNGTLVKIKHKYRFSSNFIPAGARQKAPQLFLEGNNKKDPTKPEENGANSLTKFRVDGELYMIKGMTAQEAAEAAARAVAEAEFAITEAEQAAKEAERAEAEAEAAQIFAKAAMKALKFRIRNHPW
The description is as above. To be noted: protein: recombinant; tags: His; label: Cy5 at 5' of strand 1; blunt.

Data set [6] concerns the target T6, TRB1-GH1Δ (Arabidopsis thaliana, UniProt Q8VWK4 1-300, del114-185).
T6 sequence: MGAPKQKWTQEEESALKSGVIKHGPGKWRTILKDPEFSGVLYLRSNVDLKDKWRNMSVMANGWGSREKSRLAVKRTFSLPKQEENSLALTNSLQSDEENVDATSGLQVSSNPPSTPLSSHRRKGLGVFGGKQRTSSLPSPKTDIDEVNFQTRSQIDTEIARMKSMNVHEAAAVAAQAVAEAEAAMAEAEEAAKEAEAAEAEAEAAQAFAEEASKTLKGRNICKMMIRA
The data set is described as above. To be noted: protein: recombinant; label: Cy5 at 5' of strand 1; blunt.

Data set [7] has as its target T7, TRB1-MybΔ-GH1Δ (Arabidopsis thaliana, UniProt Q8VWK4 61-300, del1-60;del114-185).
T7 sequence: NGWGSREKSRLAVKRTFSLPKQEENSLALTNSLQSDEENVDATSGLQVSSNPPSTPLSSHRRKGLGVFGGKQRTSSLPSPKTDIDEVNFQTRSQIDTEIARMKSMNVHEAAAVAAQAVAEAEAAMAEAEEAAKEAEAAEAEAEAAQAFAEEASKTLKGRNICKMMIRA
The data set is described as above. Conditions: protein: recombinant; label: Cy5 at 5' of strand 1; blunt.

Data set [8] deals with T8, TRB1-1 (Arabidopsis thaliana, UniProt Q8VWK4 1-185).
T8 sequence: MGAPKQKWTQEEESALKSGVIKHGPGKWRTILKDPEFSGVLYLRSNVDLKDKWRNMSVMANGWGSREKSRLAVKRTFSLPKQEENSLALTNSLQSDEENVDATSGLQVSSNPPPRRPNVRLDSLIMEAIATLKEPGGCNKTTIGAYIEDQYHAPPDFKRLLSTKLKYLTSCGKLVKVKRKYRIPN
Described as above. To be noted: protein: recombinant; tags: His; label: Cy5 at 5' of strand 1; blunt.

Data set [9] concerns the target T1, TRB1;HTH1. Nature of the data set: ITC; enhanced vs TRB1 alone; Kd only in figure; EMSA: 10 mM Tris-HCl pH 7.5, 50 mM NaCl, 1 mM EDTA, 5% glycerol, 1 mM DTT, 25 C, 30 min, 20 ng DNA + 1 ug protein; ITC: 20 mM Tris-HCl pH 7.5, 150 mM NaCl, 25 C, 5 uM protein, 100 uM DNA. To be noted: protein: recombinant;recombinant; tags: His;His or MBP (EMSA construct not specified); blunt. For orientation: ITC needs no label: the signal is the heat of the interaction.

In data set [10] the target is T2, TRB1;NAC050-N. The description is as above. Conditions: protein: recombinant;recombinant; tags: His;MBP; blunt.
The target in data set [11] is T9, ICU11, recombinant, GST- or MBP-tagged (pull-down) (Arabidopsis thaliana, UniProt Q3ED68 1-397).
T9 construct: ICU11, Arabidopsis thaliana, AT1G22950; full length in pGEX6P-1 (GST) or pET-30a (MBP); source: E. coli BL21, purified (GST beads or MBP beads); not shown: GST or MBP (both forms were made)
T9 sequence (looked up): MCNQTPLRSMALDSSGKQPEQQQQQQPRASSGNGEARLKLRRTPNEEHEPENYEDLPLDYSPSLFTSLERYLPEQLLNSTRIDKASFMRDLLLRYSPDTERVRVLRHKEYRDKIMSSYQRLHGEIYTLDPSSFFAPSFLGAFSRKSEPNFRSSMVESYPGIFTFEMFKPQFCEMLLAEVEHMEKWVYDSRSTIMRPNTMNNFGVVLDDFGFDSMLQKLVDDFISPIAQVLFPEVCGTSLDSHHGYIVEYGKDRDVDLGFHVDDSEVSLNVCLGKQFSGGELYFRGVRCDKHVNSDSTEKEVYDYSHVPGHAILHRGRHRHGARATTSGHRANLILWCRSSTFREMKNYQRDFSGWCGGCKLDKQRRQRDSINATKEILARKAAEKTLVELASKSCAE
Nature of the data set: pull-down; purified proteins mixed in GST-tag lysis buffer (20 mM Tris-HCl pH 7.5, 150 mM NaCl, 1 mM DTT) at 4 °C for 1 h, then GST or MBP beads; immunoblot with GST, MBP or His antibody. To be noted: both partners purified.

Data set [12] addresses T10, ICU11-GST, recombinant (gel filtration) (Arabidopsis thaliana, UniProt Q3ED68 1-397).
T10 construct: ICU11, Arabidopsis thaliana, AT1G22950; full length in pGEX6P-1; May be the same construct as m20 in some pull-downs; source: E. coli BL21, purified (GST beads)
T10 sequence (looked up): T9 sequence (looked up)
Nature of the data set: SEC; purified proteins mixed in equivalent molar amounts, 4 °C overnight, Superose 6 10/300GL; fractions detected by immunoblotting (GST, FLAG, MBP, HIS). To be noted: both partners purified. On the technique in general: Size exclusion chromatography separates by hydrodynamic size, large species first.

B1: Probe 1 (P1) (dsDNA)
DNA 1: ATCGAATTTAGGGCAAAATG
DNA 2: CATTTTGCCCTAAATTCGAT
As for B1, the binding result in data set [1], in data set [2], in data set [3], in [4], in data set [5] and in [6] was “binds” each time. Also, the binding result in [7] was “no binding”; in [8], “binds”.

B2: Probe 1 for ITC (dsDNA)
DNA 1: ATCGAATTTAGGGCAAAATG
DNA 2: CATTTTGCCCTAAATTCGAT
On to B2, for which the binding result in data set [9] and in data set [10] was “binds” in each case.

B3: TRB1-His, recombinant (natural protein, Arabidopsis thaliana, UniProt Q8VWK4 1-300, looked up)
chain: T1 sequence 1
notes: TRB1, Arabidopsis thaliana, AT1G49950; full length in the vector pSMT3; pSMT3 is recalled to add an N-terminal His-SUMO; source: E. coli BL21, purified (His beads)
Turning to B3, the binding result in data set [11] and in data set [12] was “binds” in each case.
